Assay results from patent US20250340902A1, “GENE THERAPY FOR BVES-RELATED DISORDERS” (OHIO STATE INNOVATION FOUNDATION, priority 2022, published 2025).

Columns and labels:
[1] = target: Collagen alpha-2(IV) chain (Mus musculus) (UniProt P08122); assay: anti-HA co-IP from muscle, MS; CTRL 1
[2] = target: Unconventional myosin-Ic (Mus musculus) (UniProt Q9WTI7); assay: anti-HA co-IP from muscle, MS; CTRL 1
Vinculin (Mus musculus) = Vinculin (Mus musculus) (UniProt Q64727); assay: anti-HA co-IP from muscle, MS; CTRL 1
[3] = target: Caveolin-1 (Mus musculus) (UniProt P49817); assay: anti-HA co-IP from muscle, MS; CTRL 1
Caveolin-1 (Mus musculus), sequence (P49817 2-178 limits assumed): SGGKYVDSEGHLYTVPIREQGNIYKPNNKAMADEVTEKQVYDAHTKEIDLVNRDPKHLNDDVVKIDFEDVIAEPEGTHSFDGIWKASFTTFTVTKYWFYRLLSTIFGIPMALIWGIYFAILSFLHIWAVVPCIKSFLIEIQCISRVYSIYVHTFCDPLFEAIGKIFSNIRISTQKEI

[4] = target: Alpha-1-syntrophin (Mus musculus) (UniProt Q61234); assay: anti-HA co-IP from muscle, MS; CTRL 1
[5] = target: Protein-cysteine N-palmitoyltransferase HHAT-like protein (Mus musculus) (UniProt Q9D1G3); assay: anti-HA co-IP from muscle, MS; CTRL 1
[6] = target: Alpha-sarcoglycan (Mus musculus) (UniProt P82350); assay: anti-HA co-IP from muscle, MS; CTRL 1
[7] = target: Cullin-associated NEDD8-dissociated protein 2 (Mus musculus) (UniProt Q6ZQ73); assay: anti-HA co-IP from muscle, MS; CTRL 1
[8] = target: Glypican-1 (Mus musculus) (UniProt Q9QZF2); assay: anti-HA co-IP from muscle, MS; CTRL 1
[9] = target: Caveolae-associated protein 2 (Mus musculus) (UniProt Q63918); assay: anti-HA co-IP from muscle, MS; CTRL 1
Caveolae-associated protein 2 (Mus musculus), sequence (Q63918 2-418 limits assumed): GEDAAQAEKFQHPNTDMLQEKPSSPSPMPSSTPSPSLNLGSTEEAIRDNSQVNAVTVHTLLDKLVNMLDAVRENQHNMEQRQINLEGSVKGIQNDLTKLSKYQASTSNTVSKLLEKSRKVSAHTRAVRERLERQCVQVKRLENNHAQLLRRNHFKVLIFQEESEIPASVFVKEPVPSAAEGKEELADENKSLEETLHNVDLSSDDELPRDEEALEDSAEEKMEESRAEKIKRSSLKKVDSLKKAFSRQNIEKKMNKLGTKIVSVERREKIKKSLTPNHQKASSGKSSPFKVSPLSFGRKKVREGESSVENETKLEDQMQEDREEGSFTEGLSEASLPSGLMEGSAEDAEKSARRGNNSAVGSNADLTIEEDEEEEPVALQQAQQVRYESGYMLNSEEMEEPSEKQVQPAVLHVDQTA

[10] = target: Caveolae-associated protein 3 (Mus musculus) (UniProt Q91VJ2); assay: anti-HA co-IP from muscle, MS; CTRL 1
Caveolae-associated protein 3 (Mus musculus), sequence (Q91VJ2 whole entry): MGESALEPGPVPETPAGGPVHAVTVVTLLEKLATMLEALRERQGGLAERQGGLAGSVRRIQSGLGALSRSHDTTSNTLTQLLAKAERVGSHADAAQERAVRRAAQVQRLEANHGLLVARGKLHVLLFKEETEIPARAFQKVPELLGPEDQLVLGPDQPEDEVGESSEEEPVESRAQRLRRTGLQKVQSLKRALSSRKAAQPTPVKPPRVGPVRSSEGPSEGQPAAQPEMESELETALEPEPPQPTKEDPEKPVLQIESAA

[11] = target: Ribosomal protein S6 kinase alpha-3 (Mus musculus) (UniProt P18654); assay: anti-HA co-IP from muscle, MS; CTRL 1
[12] = target: Myosin light chain kinase 2, skeletal/cardiac muscle (Mus musculus) (UniProt Q8VCR8); assay: anti-HA co-IP from muscle, MS; CTRL 3
[13] = target: Transcription elongation factor A protein 3 (Mus musculus) (UniProt P23881); assay: anti-HA co-IP from muscle, MS; CTRL 3
[14] = target: Perilipin-4 (Mus musculus) (UniProt O88492); assay: anti-HA co-IP from muscle, MS; CTRL 3
[15] = target: Phosphorylase b kinase regulatory subunit alpha, skeletal muscle isoform (Mus musculus) (UniProt P18826); assay: anti-HA co-IP from muscle, MS; CTRL 5
[16] = target: Spectrin beta chain, non-erythrocytic 1 (Mus musculus) (UniProt Q62261); assay: anti-HA co-IP from muscle, MS; CTRL 5
[17] = target: Striated muscle-specific serine/threonine-protein kinase (Mus musculus) (UniProt Q62407); assay: anti-HA co-IP from muscle, MS; CTRL 5
[18] = target: Spectrin alpha chain, non-erythrocytic 1 (Mus musculus) (UniProt P16546); assay: anti-HA co-IP from muscle, MS; CTRL 5
[19] = target: Eukaryotic translation initiation factor 5B (Mus musculus) (UniProt Q05D44); assay: anti-HA co-IP from muscle, MS; CTRL 5
Biglycan (Mus musculus) = Biglycan (Mus musculus) (UniProt P28653); assay: anti-HA co-IP from muscle, MS; CTRL 5
[20] = target: Annexin A6 (Mus musculus) (UniProt P14824); assay: anti-HA co-IP from muscle, MS; CTRL 5
Annexin A6 (Mus musculus), sequence (P14824 2-673 limits assumed): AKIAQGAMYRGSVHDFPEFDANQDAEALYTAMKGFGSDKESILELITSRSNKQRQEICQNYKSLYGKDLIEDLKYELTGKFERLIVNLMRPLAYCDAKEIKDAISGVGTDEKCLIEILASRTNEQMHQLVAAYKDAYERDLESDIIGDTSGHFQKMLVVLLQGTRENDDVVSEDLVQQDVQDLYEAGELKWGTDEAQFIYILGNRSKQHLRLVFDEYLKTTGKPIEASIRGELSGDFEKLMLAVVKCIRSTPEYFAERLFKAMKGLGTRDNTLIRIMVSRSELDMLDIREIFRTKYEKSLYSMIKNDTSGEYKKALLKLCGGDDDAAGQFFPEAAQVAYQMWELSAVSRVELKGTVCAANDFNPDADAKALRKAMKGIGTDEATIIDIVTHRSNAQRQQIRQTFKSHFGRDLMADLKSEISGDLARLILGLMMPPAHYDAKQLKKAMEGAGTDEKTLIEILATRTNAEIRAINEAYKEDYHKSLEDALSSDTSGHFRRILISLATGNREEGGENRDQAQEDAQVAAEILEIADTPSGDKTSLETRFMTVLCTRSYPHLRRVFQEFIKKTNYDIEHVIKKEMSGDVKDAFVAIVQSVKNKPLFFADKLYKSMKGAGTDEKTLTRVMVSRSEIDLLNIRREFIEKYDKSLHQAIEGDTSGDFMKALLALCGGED

[21] = target: MICOS complex subunit Mic60 (Mus musculus) (UniProt Q8CAQ8); assay: anti-HA co-IP from muscle, MS; CTRL 4
MICOS complex subunit Mic60 (Mus musculus), sequence (Q8CAQ8 34-757 limits assumed, one chain of several): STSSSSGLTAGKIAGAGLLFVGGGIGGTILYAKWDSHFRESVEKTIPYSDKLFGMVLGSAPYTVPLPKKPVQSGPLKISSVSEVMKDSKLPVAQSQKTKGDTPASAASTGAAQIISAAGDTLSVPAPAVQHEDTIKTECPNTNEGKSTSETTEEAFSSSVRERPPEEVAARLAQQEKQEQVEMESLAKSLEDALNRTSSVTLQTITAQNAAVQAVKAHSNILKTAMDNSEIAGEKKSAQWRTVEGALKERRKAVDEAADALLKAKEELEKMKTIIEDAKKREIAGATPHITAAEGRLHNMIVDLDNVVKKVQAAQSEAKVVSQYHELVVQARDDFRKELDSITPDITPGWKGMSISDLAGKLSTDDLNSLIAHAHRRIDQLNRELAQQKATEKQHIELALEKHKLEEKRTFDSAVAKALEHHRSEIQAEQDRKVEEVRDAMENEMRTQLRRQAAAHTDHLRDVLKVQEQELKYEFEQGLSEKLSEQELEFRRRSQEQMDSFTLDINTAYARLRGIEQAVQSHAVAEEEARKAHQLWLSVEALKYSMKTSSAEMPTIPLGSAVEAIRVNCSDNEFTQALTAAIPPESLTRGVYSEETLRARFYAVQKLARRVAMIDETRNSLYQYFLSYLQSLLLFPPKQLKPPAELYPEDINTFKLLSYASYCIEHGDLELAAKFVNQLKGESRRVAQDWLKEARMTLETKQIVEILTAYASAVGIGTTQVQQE

[22] = target: Phosphorylase b kinase regulatory subunit beta (Mus musculus) (UniProt Q7TSH2); assay: anti-HA co-IP from muscle, MS; CTRL 4
[23] = target: Trifunctional enzyme subunit beta, mitochondrial (Mus musculus) (UniProt Q99JY0); assay: anti-HA co-IP from muscle, MS; CTRL 4
[24] = target: Carnitine O-palmitoyltransferase 1, muscle isoform (Mus musculus) (UniProt Q924X2); assay: anti-HA co-IP from muscle, MS; CTRL 4

Collagen alpha-2(IV) chain (Mus musculus), sequence (P08122 26-1707 limits assumed): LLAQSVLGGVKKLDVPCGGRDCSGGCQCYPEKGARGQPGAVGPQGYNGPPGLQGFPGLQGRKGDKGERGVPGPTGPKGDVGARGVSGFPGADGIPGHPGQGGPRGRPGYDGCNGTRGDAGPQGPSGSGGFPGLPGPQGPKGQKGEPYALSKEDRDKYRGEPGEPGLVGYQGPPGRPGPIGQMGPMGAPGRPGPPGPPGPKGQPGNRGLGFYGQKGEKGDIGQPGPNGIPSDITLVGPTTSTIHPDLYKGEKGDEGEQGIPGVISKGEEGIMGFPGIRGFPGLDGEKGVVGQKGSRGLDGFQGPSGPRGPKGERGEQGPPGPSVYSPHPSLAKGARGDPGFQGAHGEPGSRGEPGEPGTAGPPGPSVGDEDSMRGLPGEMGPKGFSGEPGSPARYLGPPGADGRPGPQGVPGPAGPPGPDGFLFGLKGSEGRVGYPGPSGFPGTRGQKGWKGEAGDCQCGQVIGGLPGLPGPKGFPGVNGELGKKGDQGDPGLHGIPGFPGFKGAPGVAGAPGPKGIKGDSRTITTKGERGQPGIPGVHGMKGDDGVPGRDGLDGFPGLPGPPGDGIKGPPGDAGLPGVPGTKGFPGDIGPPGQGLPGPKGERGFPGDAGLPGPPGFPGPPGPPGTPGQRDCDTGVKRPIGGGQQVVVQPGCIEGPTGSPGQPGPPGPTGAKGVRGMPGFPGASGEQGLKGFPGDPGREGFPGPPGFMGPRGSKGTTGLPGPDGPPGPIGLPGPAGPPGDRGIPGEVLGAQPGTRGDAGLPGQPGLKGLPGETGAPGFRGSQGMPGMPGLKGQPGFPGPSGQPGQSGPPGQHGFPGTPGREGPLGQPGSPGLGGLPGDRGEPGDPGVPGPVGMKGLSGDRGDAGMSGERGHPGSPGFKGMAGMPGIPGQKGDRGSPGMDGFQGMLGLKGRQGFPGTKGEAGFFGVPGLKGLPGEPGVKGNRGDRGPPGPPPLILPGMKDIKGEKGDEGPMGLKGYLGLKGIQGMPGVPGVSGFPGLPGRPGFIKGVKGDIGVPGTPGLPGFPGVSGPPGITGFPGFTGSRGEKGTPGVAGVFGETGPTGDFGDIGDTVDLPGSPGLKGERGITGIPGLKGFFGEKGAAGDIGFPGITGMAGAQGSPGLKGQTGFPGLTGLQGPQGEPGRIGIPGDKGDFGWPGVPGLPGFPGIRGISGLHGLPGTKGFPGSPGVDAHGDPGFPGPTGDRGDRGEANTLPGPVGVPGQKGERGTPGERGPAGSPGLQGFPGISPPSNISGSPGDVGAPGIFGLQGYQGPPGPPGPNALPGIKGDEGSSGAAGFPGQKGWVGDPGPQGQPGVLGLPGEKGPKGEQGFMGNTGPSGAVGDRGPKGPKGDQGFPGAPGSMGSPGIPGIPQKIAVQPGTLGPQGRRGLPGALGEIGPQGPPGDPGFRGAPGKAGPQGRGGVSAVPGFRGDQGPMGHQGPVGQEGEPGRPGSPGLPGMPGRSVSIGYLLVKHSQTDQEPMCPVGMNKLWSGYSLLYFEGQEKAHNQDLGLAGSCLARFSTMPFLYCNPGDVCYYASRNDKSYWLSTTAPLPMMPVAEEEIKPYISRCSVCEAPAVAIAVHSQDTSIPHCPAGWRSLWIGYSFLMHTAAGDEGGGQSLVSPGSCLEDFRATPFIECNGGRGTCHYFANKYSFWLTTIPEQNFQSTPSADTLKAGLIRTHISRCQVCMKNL
Unconventional myosin-Ic (Mus musculus), sequence (Q9WTI7 whole entry): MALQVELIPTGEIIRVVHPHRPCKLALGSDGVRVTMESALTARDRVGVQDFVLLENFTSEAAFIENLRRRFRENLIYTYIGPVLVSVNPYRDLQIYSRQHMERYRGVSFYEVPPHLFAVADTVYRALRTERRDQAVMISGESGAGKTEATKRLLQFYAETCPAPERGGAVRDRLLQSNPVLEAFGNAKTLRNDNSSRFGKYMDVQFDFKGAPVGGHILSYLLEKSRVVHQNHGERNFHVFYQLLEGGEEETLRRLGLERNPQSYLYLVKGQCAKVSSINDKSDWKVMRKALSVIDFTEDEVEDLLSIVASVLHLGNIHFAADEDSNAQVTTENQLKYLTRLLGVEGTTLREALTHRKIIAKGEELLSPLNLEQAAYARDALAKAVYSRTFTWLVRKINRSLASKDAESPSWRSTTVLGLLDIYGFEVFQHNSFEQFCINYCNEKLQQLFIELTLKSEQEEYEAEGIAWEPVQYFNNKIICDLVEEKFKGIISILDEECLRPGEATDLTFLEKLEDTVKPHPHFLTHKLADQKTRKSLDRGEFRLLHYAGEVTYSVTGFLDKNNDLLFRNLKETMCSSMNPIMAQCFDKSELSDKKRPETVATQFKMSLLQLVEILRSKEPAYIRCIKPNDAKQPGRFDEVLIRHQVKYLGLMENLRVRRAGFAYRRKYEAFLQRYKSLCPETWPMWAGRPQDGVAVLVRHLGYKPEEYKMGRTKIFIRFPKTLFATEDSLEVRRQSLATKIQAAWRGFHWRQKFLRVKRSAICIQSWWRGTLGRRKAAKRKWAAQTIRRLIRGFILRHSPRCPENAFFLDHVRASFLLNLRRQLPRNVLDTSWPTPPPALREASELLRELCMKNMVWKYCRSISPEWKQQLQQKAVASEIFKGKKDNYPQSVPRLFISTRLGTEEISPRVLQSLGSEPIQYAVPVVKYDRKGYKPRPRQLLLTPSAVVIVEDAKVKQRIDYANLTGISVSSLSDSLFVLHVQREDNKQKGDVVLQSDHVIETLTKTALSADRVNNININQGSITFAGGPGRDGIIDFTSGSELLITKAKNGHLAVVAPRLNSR

human BVES fused with 3xHA tag (from UniProt Q8NE79 1-360)
AAV9-BVES-HA (IP-MS count) [1]: 5 | AAV9-BVES-HA (IP-MS count) [2]: 7 | AAV9-BVES-HA (IP-MS count) (Vinculin (Mus musculus)): 5 | AAV9-BVES-HA (IP-MS count) [3]: 8 | AAV9-BVES-HA (IP-MS count) [4]: 11 | AAV9-BVES-HA (IP-MS count) [5]: 5 | AAV9-BVES-HA (IP-MS count) [6]: 5 | AAV9-BVES-HA (IP-MS count) [7]: 16 | AAV9-BVES-HA (IP-MS count) [8]: 11 | AAV9-BVES-HA (IP-MS count) [9]: 12 | AAV9-BVES-HA (IP-MS count) [10]: 11 | AAV9-BVES-HA (IP-MS count) [11]: 20 | AAV9-BVES-HA (IP-MS count) [12]: 9 | AAV9-BVES-HA (IP-MS count) [13]: 12 | AAV9-BVES-HA (IP-MS count) [14]: 11 | AAV9-BVES-HA (IP-MS count) [15]: 23 | AAV9-BVES-HA (IP-MS count) [16]: 19 | AAV9-BVES-HA (IP-MS count) [17]: 16 | AAV9-BVES-HA (IP-MS count) [18]: 24 | AAV9-BVES-HA (IP-MS count) [19]: 14 | AAV9-BVES-HA (IP-MS count) (Biglycan (Mus musculus)): 16 | AAV9-BVES-HA (IP-MS count) [20]: 17 | AAV9-BVES-HA (IP-MS count) [21]: 15 | AAV9-BVES-HA (IP-MS count) [22]: 18 | AAV9-BVES-HA (IP-MS count) [23]: 13 | AAV9-BVES-HA (IP-MS count) [24]: 24
